Results: patent publication US20050132443A1

Target: tobacco ethylene-responsive transcription factor ERF4 (tobacco) (UniProt Q40478)
Experiment: cell-based or functional assay

Sequence of tobacco ethylene-responsive transcription factor ERF4 (tobacco) (Q40478 whole entry): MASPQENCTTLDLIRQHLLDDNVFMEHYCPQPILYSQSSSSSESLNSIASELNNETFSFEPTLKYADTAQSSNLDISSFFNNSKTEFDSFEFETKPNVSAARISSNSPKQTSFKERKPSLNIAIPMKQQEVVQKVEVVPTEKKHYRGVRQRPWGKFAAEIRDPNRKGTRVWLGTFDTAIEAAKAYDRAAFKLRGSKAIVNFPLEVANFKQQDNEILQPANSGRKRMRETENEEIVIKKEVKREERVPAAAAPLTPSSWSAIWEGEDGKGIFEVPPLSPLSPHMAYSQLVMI

GUS activity (pERE-GUS reporter, transient assay in tobacco leaves): 5.5 fold
Substance: Multiprotein Bridging Factor 1 of Oryza sativa (oMBF1)
